Test results as given in PMC3626704 (BMC Biochemistry, 2013).

Tests used:
5-Helix = molecular target: T1, 5-Helix (HIV-1 group M subtype B, HXB2 (gp41 …, stabilised)); assay: ELISA; details: both partners purified
T1 construct: also called designed protein based on HIV-1 gp41

6-Helix-Fd = molecular target: T2, 6-Helix-Fd (HIV-1 gp41 (HXB2-like, printed sequence), stabilised); assay: ELISA; details: both partners purified
T2 construct: also called post-fusion six-helix bundle mimic
T2 chain: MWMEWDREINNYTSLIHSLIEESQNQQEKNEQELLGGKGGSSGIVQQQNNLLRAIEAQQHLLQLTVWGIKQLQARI

B1: 25A12 scFv, purified monovalent (scFv, V domains shown)
VH: QVQLVQSGAEVRKPGASVKVSCKASGDTFSSYAISWVRQAPGQGLEWMGGIIPIFGTANYAQAFQGRVTITANESTSTAYMELSSLRSEDTAIYYCARDNPTLLGSDYWGAGTLVTVSS
VL: DIQMTQSPSTLSASIGDRVTITCRASEGIHRYLAWYQQKPGKAPKLLIYHASRLASGAPSRFSGSGSGTDFTLTISSLQPDDFATYYCQQRANYPYTFGGGTKLEIK
IC50 (5-Helix): 34 nM
IC50 (6-Helix-Fd): 280 nM
